{"source": "patent US12534533B2", "about": "“Anti-chemokine like receptor 1 humanized antibodies and their therapeutic applications” (OSE IMMUNOTHERAPEUTICS, priority 2019, dated 2026)", "key": {"4T1 cells": {"tested_on": "4T1 cells", "test": "orthotopic mammary carcinoma model (4T1)", "type": "in vivo, mice", "procedure": "FIG. 8. Effect of an anti-CMKLR1 antibody on a 4T1 breast tumor model. Mice were inoculated with 4T1 cells (0.25 million) in the mammary gland. Then the anti-CMKLR1 antibody (2G1) (A. […]B. ●) or an anti-41BB antibody (3H3) (●) or both antibodies (▴) were injected twice at day 4 and day 7 (10 μg/injection) or a control antibody (IgG1 isotype antibody clone 3G8) (x A. and B.) was injected three time a week for three weeks. A. The tumor area was measured 8 days after tumor injection and then every 2 days. B. Tumor lung metastasis was measured by Bioluminescence imaging (BLI) in animals treated with isotype control and anti-CMKLR1 antibody (n=4).\nMice were anesthetized with 3% of isoflurane. Mice were shaved on the abdomen and 4T1 cells (0.25 millions) were injected in the mammary gland with an insulinic syringe (30 Gauges) in 50 μL of PBS. The anti-CMKLR1 antibody (2G1) or an anti-41BB antibody (3H3) or both antibodies were injected twice at day 4 and day 7 (10 μg/injection); a control antibody was injected three times a week for three weeks intraperitoneally in PBS (100 μg/injection). In a second study to measure the lung metastasis following mammary carcinoma development, animals were treated with anti-CMKLR1 antibody at 0.8 mg/kg or control antibody (100 μg/injection) three times a week for three weeks."}, "[1]": {"tested_on": "Akt and Erk phosphorylation in pro-inflammatory (M1) macrophages", "test": "Western blot analysis ERK/Akt phosphorylation", "type": "cell-based, mice", "details": "2 μg/mL; after 10 to 30 minutes of incubation; FIG. 17", "procedure": "FIG. 17. Study of the CMKLR1 pathway activation: Akt and Erk phosphorylation. Western blot analysis of the ERK and AKT activation pathway after 5, 10 and 30 minutes of mice pro-inflammatory (M1) macrophages incubated with 2G1 or RvE1. The Phosphorylated protein Akt or Erk were assessed using P-Akt antibody or P-Erk antibody (p44/42). A. Erk and Akt activation with RvE1. B. Erk and Akt activation with 2G1.\nMice pro-inflammatory macrophages (M1) were generated from bone marrow with M-CSF and polarized with IFN-gamma (IFNg) and LPS. Briefly, bone marrow cells were collected by flushing the femoral bone and cultured with 100 ng/mL of mM-CSF for 5 days and then polarized with 20 ng/mL of IFNg and 100 ng/mL of LPS for 24 h. Then, they were deprived of FBS for 24 hours with RPMI FBS 2% medium. Finally, mice pro-inflammatory macrophages were treated with 2 μg/mL of 2G1 antibody at different times: 5, 10 and 30 minutes. Cells were collected in a RIPA buffer. The protein concentration was measured by a BCA protein kit assay. Proteins were denatured by heating at 95° C. for 5 minutes and diluted in DTT and Laemmli solution. After migration and transfer, the nitrocellulose membrane was blocked with 5% BSA in TBS-T for 2 hours. […] Western blot Images were quantified by Multi Gauge software"}}}
{"molecule": "2G1: parental chimeric anti-CMKLR1 antibody: heavy chain variable domain SEQ ID No. 37, light chain variable domain SEQ ID No. 49 (antibody, V domains shown) VH: EVQLVASGGGLVQPGGSLKLSCAASGFTFSSYGMSWVRQTPDRRLELVATINRYGGSTYYPDSVKGRFTISRDNAKNTLYLQMSSLKSEDTAMYYCPRLIYYGNEGDSWGQGTTLTVSS VL: QIVLTQSPAIMSASPGEKVTMTCSASSSVSFMHWYQQKSGTSPKRWIYDTTKLTSGVPARFSGSGSGTFYSLTISSMEAEDAATYYCQQWNSKPPLTFGPGTKLELKR", "values": [{"measurement": "tumor growth (tumor area)", "setting": "4T1 cells; 10 μg/injection at day 4 and day 7, vs isotype control, FIG. 8A", "result": "did not show any improvement"}, {"measurement": "lung metastasis by bioluminescence imaging", "setting": "4T1 cells; 0.8 mg/kg three times a week for three weeks, vs control antibody, FIG. 8B", "result": "reduces the lung metastasis"}, {"measurement": "lymph node metastasis", "setting": "4T1 cells; two animals in the control have metastasis, data not shown", "result": "no animals treated with the anti-CMKLR1 compound has metastasis"}, {"measurement": "activation of Akt and Erk proteins (phosphorylation)", "setting": "[1]", "result": "able to induce the activation of both Akt and Erk proteins"}]}
